Results reported in article PMC12691745.

Target: T1, proPpiA (UniProt P0AFL3)
T1 sequence: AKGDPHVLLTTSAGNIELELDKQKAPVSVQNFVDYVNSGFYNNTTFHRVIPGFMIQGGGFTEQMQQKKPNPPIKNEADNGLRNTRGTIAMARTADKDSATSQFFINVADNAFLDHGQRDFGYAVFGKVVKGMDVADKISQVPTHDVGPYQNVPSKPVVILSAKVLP

Sequence of SecB (P0AG86 whole entry): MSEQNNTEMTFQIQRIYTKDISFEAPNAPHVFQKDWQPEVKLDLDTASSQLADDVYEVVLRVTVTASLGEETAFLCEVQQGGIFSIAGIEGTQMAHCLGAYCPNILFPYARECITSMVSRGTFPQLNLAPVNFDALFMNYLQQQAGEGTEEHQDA

solubility of proPpiA after dilution from urea (18 µM protein, 30 min, centrifugation at 20,000× g), with 108 µM SecB; buffer control ~30% soluble: 70%
Substance: SecB (from UniProt P0AG86 1-155) (natural protein)
